Where two headings read alike, the source gives them in different places.

Our source for the Kd values is article PMC8214912.

Common to all, as to test: NMR titration
In series [1] the target is T1, N 1-209 (nucleocapsid N-terminal region: N-terminal flank, NTD and SR region) (SARS-CoV-2, UniProt P0DTC9 1-209).
Series [2] deals with T1, N 1-209 (nucleocapsid N-terminal …). The source holds these as a separate data set.
For series [3] the target is unchanged. The source holds these as a separate data set.

The term Kd denotes the constant that tells how readily two partners part at equilibrium. With TAATAAC (ssDNA), the Kd in series [1] stood at 110 ± 8 µM.

In the case of AAUAA (ssRNA), the Kd in series [2] was found to be 189 ± 22 µM.

Regarding GGUGGGAGCCUCUUUUAUGGGGUGACUGCC (structured_RNA) [H25 30-mer], the Kd in series [1] amounted to 19.9 ± 4.7 µM.

Molecule GUGUGUGCCUGU (ssRNA) [GU 12-mer] showed a Kd in series [3] of 6 ± 2 µM.

In series [2], UAAUAAC (mixed, 2'-deoxy at terminal nucleotides 1 (dU) and 7 (dC); remainder RNA) [dUAAUAAdC] came in with a Kd of 138 ± 12 µM.
